Assay results as given in the domain aggregation screens of Martell et al. (2025).

Experiment: soluble fraction after stress (log2 fold change); higher = more stays soluble; pooled small domains, quantitative proteomics
Settings: stress: pH 4
Outline: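 Pooled custom libraries of small protein domains were stressed at pH 4 and then measured by high-throughput quantitative proteomics. The fold change in the amount of each domain that stays soluble after the acid stress serves as a measure of aggregation propensity. Fold changes are given on a log2 scale, and higher values mean more of the domain stayed soluble.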

Row | Sequence | soluble fraction (log2)
1 | HMQPPLTPRELGVLQWAAEGKTTRDTSAILQIHQRTVEMHLKSAREKLDALNTTHAVARALAHGFILPPS | 0.102
2 | HMQEERLTFDTLLGISGIGPRLALAVLSRFTPGSLAAAVDAGDTKAFSAVPGVGNRTASRIILELKGKL | -0.238
3 | HMADPRFHSEIMLSKIESLLSGKADSDVSNYSIQGRSLTKMSLQELMDARESYDGLVKSEKAKLDAKY | -0.218
4 | HMSASSDATRQRVLRAAEQLFGAKGVENVSLREMTTLAGVNLAAVNYHFGSKDALAEAVFEALSER | 0.138
5 | HMQVSIGERVKLARMSAGLNQRQLGKEMGMSAMAISKYETGEVVPNSRVLIQLSQTLHVPLDFFFRS | 0.0627
6 | HMSKYERVYTGSEINVNHLKSQLEDAGISSVVRNDHESAIRAGFGSDYDRGVLLFVEKDNLLRAKHIIEKT | 0.0771
7 | HMFDGVAAGKPAILDALEDAGGFLPLNSKSSVEEIQASFSFSKRVFKQLIGMLYKERKIVITDDGIRLAD | -0.654
8 | HMPDDHFIRGYVTAVLEQVLKVPSIQVEVERGVVILRGDLPGEERQELLDAVSRIHGVARVEYIPL | -0.281
9 | HMNKIDVVEVDMSKPYEDMTVTELQNVILGKLASNGPVTDQMKKDVAENIYHDSLVNWAKSF | -0.303
10 | HMTTRQREALLDYLSRHPDQPLTVREIAAGVEPDGVSLSAVYRNLAELEAAGLIRRESRPGSREAVVQYV | -0.192
11 | HMRDQQHNIYLLEKAKRLYEEFLGDNRHIIAAEMARFEAVLETQDAIIIQRAQQQFSEFLNRFDG | -1.2
12 | HMVRQKYKSNFITVGDKSLTIHDWAQRLNLSQYALRNRYKEFGKEWVEKAIKTILETGDNTHIYK | 0.0662
13 | HMKIPGIGDVYAILARVYSGPQFTWIEAGFPEDDTKAYSYLHTAIRKGSAIAILQAMRTSGALTPTIEKE | -0.457
14 | HMLNEWIDYIDEHIKEELTAKNLATVFGYSERHFRNVFQIYYDIKLNDYIRRRKLYFAAQELKKG | -1.76
15 | HMGIKAADIVTNDIQFNTQAQFDKYKDLYPTLGWGNYDPNKTYTMQGFKNKLKPNELFTGTPNLKIEDT | -0.105
16 | HMIQADFIPQVEQRLADRGLSMSGDVMAAFLDRAGYGLRHVSNEIEKLSLYLGDRKKVTVEDVVQMVAPVR | -0.415
17 | HMASINRIENKNGKVVYRIIVSLGYDKQGKKLKKTITYNVNQTATKKQQENEALKYALDIEDKIKNGHD | -0.138
18 | HMGDKRPIAVGDYVKLEGQDTPGQVLSISGKNATVGFGMLKTTVKLDRLRHTMAKPQTGASAGVR | ≥ 0.43
19 | HMRSAKLPYSEFLKLVDTDKVNDVSIVGRTISGHLDDGSKFSTYTPPNDPNIIEKLSSHNVIINSAPE | 0.337
20 | HMNYHDTLSYLMDAFGGADNLQKLLGVGPSALSNYRRREHLPLNQARKLSNIAPEFGFNLDPYTLKISVID | -0.588
21 | HMNMMIIHVNGEKYSFQEPITISELILKLELDSRKIAIEYNLEILPRSLFEITSIKNGDKIEIVHFI | -0.892
22 | HMEVLSYYGSRGQEVVNIQTKLKQWGYYKGNIDGIFGNLTYQAVREFQRKNGLKVDGIVGPETLAALGLPT | -0.479
23 | HMTLHEAMEKLFRQVGRPMTTKEIAEKLNENKWYQKADGSPLTPYQIYGRAKNYPALFHREGSIIYLKGS | 0.136
24 | HMNNTVLSSVKSINMFLDANGGDAGQAFRIYNNTNPDSNPTESTYIFKVAEDGNTFVKGYLNLNGTTL | 0.378
25 | HMKGSYTVKSGDNLWSIARKFYGGSGSTWTKIYSANKSTIESTARRYGRSSSDNGHWIYPGTVLVIP | 0.405

Row | Sequence | soluble fraction (log2)
26 | HMVNHVGITVSNLERSIQFYEALTGKKIANQDTIGGKRMAQTQGLADTLIKYANLHLDNLNIDLLEYVE | -0.448
27 | HMSSWEVLAEPIQTVMRRYGVPGAYEKLKEVTRGKSLTAEALHALIRSLDIPQADKERLLALTPAAWA | -0.393
28 | HMIPYQDPLPKGAEESLLSKYPGFEITGVHFVNDTNFIGYKVRLERGEDREEISLDVNGKFL | -0.169
29 | HMTLTIEDQLRRLRARLGRGRAFLFSDVLVNPHDRTEIAVTLLALLELIKRREAQASQSYLFGPIEVAAA | -1.33
30 | HMYEVDGLGIRIAQLRKKQDLTQEAFARTLGVSPQAVSKWETGIGYPDITLLPQIAKELGVSIDQLFGRN | 0.0751
31 | HMASIGVGTIVRVANAVNYNGVKVKAWFNDEGYEVTELSGDRAVLKHNGDLFDAFHVSDLEA | -0.771
32 | HMTQEFIVPKVTGYTVEDAMNLSGVKDVFEITVDSTEKSDQPAGIILFQDPKDGSSRKSDLVIHVVVSAGS | 0.0901
33 | HMNPAIYIRKNILNLTQEKLSEYLDVTQPTIHRWEESGVIPAKHQRQIREFASEKGIYWNDSWFFSIPDE | -1.2
34 | HMPTKSDLLQWIKDRASKMGGAFTNSGAYALADAGVDGPRALSSEINKLLTYVNWERSVEADDVIRL | -0.296
35 | HMHLLPAREQVAAYLRKAILRQEIREGTILNLADTARQMGVSVTPVREALQLLAAQGLVRLRPNKGAVVMG | 0.158
36 | HMEFSYLEEIGHEKGDLIKGLQLIQQKEGYVSDDAVRAVAENFGMSPAEVEGVLTFYAQFKR | -1
37 | HMHPELSDSQRTLIALMASGLKDEAIAVEMGVGARTVRRKVQELYELLGVRTRFQAGVAANQRGW | -0.606
38 | HMSDVLPEAILERRLVKKGNRAVPQVLIKWTKLPATSATWEDFYVLQQRFPTALAWGQAPSPGGQM | -0.213
39 | HMLFRGNGFNTLYDKQLRITQQGEFKDGRLWDGKYYRYSKAGELVRIEIYEQGRYAGNGVITDEDKA | -0.0519
40 | HMVKDYIQVTVNKEPVILKGKKDYIFIDIFNYIEFDLTIPKGSLYLLLNGKNAGYHDKLLDGDVIELGW | -1.63
41 | HMFRPDYYEILQVDRHASPEVITAAYRQLLSIYNSEQDGNKQMIKLIQEAYGVLGDSQDRWLYDSWLDNN | -1.37
42 | HMQKPELLAPAGSLEKAKTAFKYGADAVYMGTSNLSLRSRVTVDDDELIKTIEYAHSINKKVYAALNIYAR | 0.134
43 | HMVTEKPLYRDELMDHDTVWVEPISMDSHLRMELRGWYHVKNRFVENEVGQRFYFDFYDIKWLAFTNGP | ≥ 0.43
44 | HMVNLKQVELREHHPWVGHKIKELDISRHTLIVMIRRGDNAIVPNGDTLIKSGDIVFVFSKR | -0.839
45 | HMSMDYYSTLGVSKTASASDIKKAYRKLAMANHPDKGGDSAKFAKITEAYDVLKDPQKRNNYDQFGTA | 0.399
46 | HMKNVSVKMILSPESLGEIQVDLVFSKGKDLEIMLRPETAEVAKLIQSNSASLREQLSLEHKGPLSLNVS | -0.405
47 | HMRLPNGYGGVTKLSGRRRKPYMVRKTIGWHIDEKTDKKVQDYVVIGYAATKSEALQMLADYNNNPFDV | 0.0101
48 | HMSKEKQILQLLQHGYSQRRIADTLSVSRNTVAKVAKAAIEHPVSSDSLDSIDELELHQKLFPEEVLI | -0.184
49 | HMLDRNKLNELDAYIESFEDKPSHLIMILHRAQGLFGYLPKELQIYVAEKTGVPAAKVYGVVTFYSFFTMK | -0.737
50 | HMTDVHFIDVPVSEGHPWIGLTVKDLNLPPGTLLVFLNHPGEKSTVPNGDTVLREGDVLVLGATAYAG | -1.02

Row | Sequence | soluble fraction (log2)
51 | HMDPDAIVSKGQLGALNNAIGRFIAQGGSQTVVDKGIAKRNPNAKKPADLTNSQAESLEAAILKILNG | 0.121
52 | HMNKVQTFIIEKHIKEVFEHTNRTYYRSGQYYFQTRDEFSMALKRFLKDREPNKKNWIDSIINRA | 0.195
53 | HMHGESIPIPNILHKRYADAEQIVNNLRLEIEVTDTGYVRSLPPGAILEQTPGPGERVKSGHIIYVTINAA | -0.0135
54 | HMPPDIKVVGVTVASDPRASFAMLSSNGKTLSYRVNDLIEGTEYHLIKVEAAAITIATAGGQSTQIAF | -0.156
55 | HMADEIQLVVQVNGKLRGRIMVAPDASREEIEKTALADADVSRFLGDTPVKKVIIVPKRLVNIVAPAPK | 0.0692
56 | HMSNAIDDAVEKVISENLDLAKERGLQSMGPLMGLVMKELGGTADGKAVSEALRRKISEISD | 0.114
57 | HMNKTLTEQIYDELKSAIIELELKPGEFVTEEYLAEQLGVSRTPLKSAISKLIFEGLMAYEVGKGTYIS | -1.32
58 | HMNAVDLLSPQEQRIFELIGEGMSNRQIADVMYLAEKTVKNYVSNVLMKLGMERRTEAAALAARLDERQK | -0.468
59 | HMTNNFIVTWRNYNEEVLEIDVNVKKGSMPKYNGKTPEREGYQFVGWDPEITEVTKDITYVAQFM | -0.0457
60 | HMIMEVDYGTFMKMTEENAIGRVQMDSTEIIFTDKENTQVYSTGIMYDPDLTQRLYDAGAVFA | -1.58
61 | HMAGVSVTSLTTFWRLAADTPDTPSGADDPSGWSRTEPSIPDGYEGKLYRTIRTIMSDGTATWTSPD | 0.0531
62 | HMSNPPLPFLAKTKVSWTGEQDGDLGFLENEVVKVFHVVDELWWQGSLSRNGAEGIFPRDFVEVISAP | -1.27
63 | HMSKNDLAGDEADVYKLLSVETGKPISDLVNRLPFGKSKTREILNTLAEKGFVYISGSGRGTKYHR | -0.403
64 | HMAIDVQELARTRLRSLRTTLGYSLDELAARTHLSPSTISRLETGKRSLSLDVVVPLAQALHVSLDVLFEA | -0.666
65 | HMALPHEIKQKWLEEIMTMLRSSDSVTINKVYLHFPENKSHWVDEILTDLSNTHMITRQHDFIRLKN | -0.221
66 | HMKPTGWVRGDMGVVDKGQLSITQGTVNVRSGPGLSYEILDQVRRGDRFPVIKSQSGWHNISM | 0.361
67 | HMHMSKKLADSIISLRRKHGFSQEQLAEKIGVTRQAISNWERGTATPDVETLNLIAKLFDMDLLAIINGE | -0.514
68 | HMPVTKSARQSRIGELIAREPVRSQSELAARLADDGIVVSQGTLSKDLLELGAVRVRTSSGELAYALL | -0.258
69 | HMVERRVRFTVAPGNAGLRLDLFLTAREIGLSRTQVGRAVDEGQIQVNGRPGRAGRKLKTGDVVAIVLPA | -0.0969
70 | HMVKSIDEIYNEAVKSLANEDYDAAKKLFNYLINNFSDPDKFPLSLFWLAEIEFSSSNFDASKNYYMQ | -0.225
71 | HMETGLSNYEFKRIREQAEALLSDGQVRRINDLVDSIKNENAEKVIRVIRFLIDTEELILEDDRVSAKKS | -1.42
72 | HMEGFKSVYFLTTPSGAEISDRSVGDIISKTPSLVSAQEGTEFEFNLKGYQPSFYMINKRSPDRVFVELIP | -0.575
73 | HMPSLSPDETVVVDALRQQNDMQINMISVKTNLPIARLSAILFEMELKGVLKPLAGGVYHLL | -0.0639
74 | HMLDKRSHAKKVLDAIEAVILGRATNDQLAYTINGRSLQKTPLPDLLRLRSQYQAEYQRELRAERIRKG | ≥ 0.43
75 | HMVEKRLFPQISDAGKRLDLFLAGALAISRTMVVKIIKDGGVLVNGKAAKASYRLAGDEELLVSYEEP | -0.243
